Measurements as given in patent publication US20160113911A1, “METHODS AND COMPOSITIONS FOR THE TREATMENT OF CANCER” (THE GENERAL HOSPITAL CORPORATION, priority 2013, published 2016).

Tests used:
H3K36me3 = assay: H3K36 demethylase activity of KDM4A variants in transfected cells (immunofluorescence); type: cell-based; design: key: + indicates active; − indicates inactive; +/− indicates partial acitivty; conditions: KDM4A mutations
Method: The indicated NHF-tagged KDM4A deletion constructs were transfected into RPE cells grown on coverslips in 10 cm dishes using X-tremeGENE 9™ DNA transfection reagent (Roche). H3K36me3 and subcellular localization were assayed by examining transfected cells (positive for HA staining; HA.11 Covance) following fixation in 3.7% PFA in PBS (Whetstine et al., 2006).
All immunofluorescence experiments were performed as in (Black et al., 2013). For the localization experiment a minimum of 50 cells were blinded and scored. For the catalytic activity, cells overexpressing a high level of KDM4A WT or SNP-A482 were analyzed in a non quantitative manner.

H3K9me3 = assay: H3K9 demethylase activity of KDM4 variants in transfected cells; type: cell-based; design: key: + indicates active; − indicates inactive; +/− indicates partial acitivty; conditions: KDM4A mutations

Row | Molecule | H3k36 Demethylase Activity (H3K36me3) | H3k9 Demethylase Activity (H3K9me3)
1 | 2A-V743I*: KDM4A mutation (protein, UniProt O75164 2-1064, looked up, variant V743I) Lysine-specific demethylase 4A: ASESETLNPSARIMTFYPTMEEFRNFSRYIAYIESQGAHRAGLAKVVPPKEWKPRASYDDIDDLVIPAPIQQLVTGQSGLFTQYNIQKKAMTVREFRKIANSDKYCTPRYSEFEELERKYWKNLTFNPPIYGADVNGTLYEKHVDEWNIGRLRTILDLVEKESGITIEGVNTPYLYFGMWKTSFAWHTEDMDLYSINYLHFGEPKSWYSVPPEHGKRLERLAKGFFPGSAQSCEAFLRHKMTLISPLMLKKYGIPFDKVTQEAGEFMITFPYGYHAGFNHGFNCAESTNFATRRWIEYGKQAVLCSCRKDMVKISMDVFVRKFQPERYKLWKAGKDNTVIDHTLPTPEAAEFLKESELPPRAGNEEECPEEDMEGVEDGEEGDLKTSLAKHRIGTKRHRVCLEIPQEVSQSELFPKEDLSSEQYEMTECPAALAPVRPTHSSVRQVEDGLTFPDYSDSTEVKFEELKNVKLEEEDEEEEQAAAALDLSVNPASVGGRLVFSGSKKKSSSSLGSGSSRDSISSDSETSEPLSCRAQGQTGVLTVHSYAKGDGRVTVGEPCTRKKGSAARSFSERELAEVADEYMFSLEENKKSKGRRQPLSKLPRHHPLVLQECVSDDETSEQLTPEEEAEETEAWAKPLSQLWQNRPPNFEAEKEFNETMAQQAPHCAVCMIFQTYHQVEFGGFNQNCGNASDLAPQKQRTKPLIPEMCFTSTGCSTDINLSTPYLEEDGTSILVSCKKCSIRVHASCYGVPPAKASEDWMCSRCSANALEEDCCLCSLRGGALQRANDDRWVHVSCAVAILEARFVNIAERSPVDVSKIPLPRFKLKCIFCKKRRKRTAGCCVQCSHGRCPTAFHVSCAQAAGVMMQPDDWPFVVFITCFRHKIPNLERAKGALQSITAGQKVISKHKNGRFYQCEVVRLTTETFYEVNFDDGSFSDNLYPEDIVSQDCLQFGPPAEGEVVQVRWTDGQVYGAKFVASHPIQMYQVEFEDGSQLVVKRDDVYTLDEELPKRVKSRLSVASDMRFNEIFTEKEVKQEKKRQRVINSRYREDYIEPALYRAIME | + | +
2 | 2A-R825H*: KDM4A mutation (protein, UniProt O75164 2-1064, looked up, variant R825H) Lysine-specific demethylase 4A: ASESETLNPSARIMTFYPTMEEFRNFSRYIAYIESQGAHRAGLAKVVPPKEWKPRASYDDIDDLVIPAPIQQLVTGQSGLFTQYNIQKKAMTVREFRKIANSDKYCTPRYSEFEELERKYWKNLTFNPPIYGADVNGTLYEKHVDEWNIGRLRTILDLVEKESGITIEGVNTPYLYFGMWKTSFAWHTEDMDLYSINYLHFGEPKSWYSVPPEHGKRLERLAKGFFPGSAQSCEAFLRHKMTLISPLMLKKYGIPFDKVTQEAGEFMITFPYGYHAGFNHGFNCAESTNFATRRWIEYGKQAVLCSCRKDMVKISMDVFVRKFQPERYKLWKAGKDNTVIDHTLPTPEAAEFLKESELPPRAGNEEECPEEDMEGVEDGEEGDLKTSLAKHRIGTKRHRVCLEIPQEVSQSELFPKEDLSSEQYEMTECPAALAPVRPTHSSVRQVEDGLTFPDYSDSTEVKFEELKNVKLEEEDEEEEQAAAALDLSVNPASVGGRLVFSGSKKKSSSSLGSGSSRDSISSDSETSEPLSCRAQGQTGVLTVHSYAKGDGRVTVGEPCTRKKGSAARSFSERELAEVADEYMFSLEENKKSKGRRQPLSKLPRHHPLVLQECVSDDETSEQLTPEEEAEETEAWAKPLSQLWQNRPPNFEAEKEFNETMAQQAPHCAVCMIFQTYHQVEFGGFNQNCGNASDLAPQKQRTKPLIPEMCFTSTGCSTDINLSTPYLEEDGTSILVSCKKCSVRVHASCYGVPPAKASEDWMCSRCSANALEEDCCLCSLRGGALQRANDDRWVHVSCAVAILEARFVNIAERSPVDVSKIPLPHFKLKCIFCKKRRKRTAGCCVQCSHGRCPTAFHVSCAQAAGVMMQPDDWPFVVFITCFRHKIPNLERAKGALQSITAGQKVISKHKNGRFYQCEVVRLTTETFYEVNFDDGSFSDNLYPEDIVSQDCLQFGPPAEGEVVQVRWTDGQVYGAKFVASHPIQMYQVEFEDGSQLVVKRDDVYTLDEELPKRVKSRLSVASDMRFNEIFTEKEVKQEKKRQRVINSRYREDYIEPALYRAIME | + | +
3 | 2A-R825C*: KDM4A mutation (protein, UniProt O75164 2-1064, looked up, variant R825C) Lysine-specific demethylase 4A: ASESETLNPSARIMTFYPTMEEFRNFSRYIAYIESQGAHRAGLAKVVPPKEWKPRASYDDIDDLVIPAPIQQLVTGQSGLFTQYNIQKKAMTVREFRKIANSDKYCTPRYSEFEELERKYWKNLTFNPPIYGADVNGTLYEKHVDEWNIGRLRTILDLVEKESGITIEGVNTPYLYFGMWKTSFAWHTEDMDLYSINYLHFGEPKSWYSVPPEHGKRLERLAKGFFPGSAQSCEAFLRHKMTLISPLMLKKYGIPFDKVTQEAGEFMITFPYGYHAGFNHGFNCAESTNFATRRWIEYGKQAVLCSCRKDMVKISMDVFVRKFQPERYKLWKAGKDNTVIDHTLPTPEAAEFLKESELPPRAGNEEECPEEDMEGVEDGEEGDLKTSLAKHRIGTKRHRVCLEIPQEVSQSELFPKEDLSSEQYEMTECPAALAPVRPTHSSVRQVEDGLTFPDYSDSTEVKFEELKNVKLEEEDEEEEQAAAALDLSVNPASVGGRLVFSGSKKKSSSSLGSGSSRDSISSDSETSEPLSCRAQGQTGVLTVHSYAKGDGRVTVGEPCTRKKGSAARSFSERELAEVADEYMFSLEENKKSKGRRQPLSKLPRHHPLVLQECVSDDETSEQLTPEEEAEETEAWAKPLSQLWQNRPPNFEAEKEFNETMAQQAPHCAVCMIFQTYHQVEFGGFNQNCGNASDLAPQKQRTKPLIPEMCFTSTGCSTDINLSTPYLEEDGTSILVSCKKCSVRVHASCYGVPPAKASEDWMCSRCSANALEEDCCLCSLRGGALQRANDDRWVHVSCAVAILEARFVNIAERSPVDVSKIPLPCFKLKCIFCKKRRKRTAGCCVQCSHGRCPTAFHVSCAQAAGVMMQPDDWPFVVFITCFRHKIPNLERAKGALQSITAGQKVISKHKNGRFYQCEVVRLTTETFYEVNFDDGSFSDNLYPEDIVSQDCLQFGPPAEGEVVQVRWTDGQVYGAKFVASHPIQMYQVEFEDGSQLVVKRDDVYTLDEELPKRVKSRLSVASDMRFNEIFTEKEVKQEKKRQRVINSRYREDYIEPALYRAIME | + | +
4 | 2A-R765Q: KDM4A mutation (protein) MASESETLNPSARIMTFYPTMEEFRNFSRYIAYIESQGAHRAGLAKVVPPKEWKPRASYDDIDDLVIPAPIQQLVTGQSGLFTQYNIQKKAMTVREFRKIANSDKYCTPRYSEFEELERKYWKNLTFNPPIYGADVNGTLYEKHVDEWNIGRLRTILDLVEKESGITIEGVNTPYLYFGMWKTSFAWHTEDMDLYSINYLHFGEPKSWYSVPPEHGKRLERLAKGFFPGSAQSCEAFLRHKMTLISPLMLKKYGIPFDKVTQEAGEFMITFPYGYHAGFNHGFNCAESTNFATRRWIEYGKQAVLCSCRKDMVKISMDVFVRKFQPERYKLWKAGKDNTVIDHTLPTPEAAEFLKESELPPRAGNEEECPEEDMEGVEDGEEGDLKTSLAKHRIGTKRHRVCLEIPQEVSQSELFPKEDLSSEQYEMTECPAALAPVRPTHSSVRQVEDGLTFPDYSDSTEVKFEELKNVKLEEEDEEEEQAAAALDLSVNPASVGGRLVFSGSKKKSSSSLGSGSSRDSISSDSETSEPLSCRAQGQTGVLTVHSYAKGDGRVTVGEPCTRKKGSAARSFSERELAEVADEYMFSLEENKKSKGRRQPLSKLPRHHPLVLQECVSDDETSEQLTPEEEAEETEAWAKPLSQLWQNRPPNFEAEKEFNETMAQQAPHCAVCMIFQTYHQVEFGGFNQNCGNASDLAPQKQRTKPLIPEMCFTSTGCSTDINLSTPYLEEDGTSILVSCKKCSVRVHASCYGVPPAKASEDWMCSQCSANALEEDCCLCSLRGGALQRANDDRWVHVSCAVAILEARFVNIAERSPVDVSKIPLPRFKLKCIFCKKRRKRTAGCCVQCSHGRCPTAFHVSCAQAAGVMMQPDDWPFVVFITCFRHKIPNLERAKGALQSITAGQKVISKHKNGRFYQCEVVRLTTETFYEVNFDDGSFSDNLYPEDIVSQDCLQFGPPAEGEVVQVRWTDGQVYGAKFVASHPIQMYQVEFEDGSQLVVKRDDVYTLDEELPKRVKSRLSVASDMRFNEIFTEKEVKQEKKRQRVINSRYREDYIEPALYRAIME | − | −
